{"source": "paper PMC4263744", "about": "“Single Arginine Mutation in Two Yeast Isocitrate Dehydrogenases: Biochemical Characterization and Functional Implication” (PLoS ONE, 2014)", "molecules": {"B1": {"name": "ScIDH1 (Saccharomyces cerevisiae S288C) (protein)", "chain": "FSKIKVKQPVVELDGDEMTRIIWDKIKKKLILPYLDVDLKYYDLSVESRDATSDKITQDAAEAIKKYGVGIKCATITPDEARVKEFNLHKMWKSPNGTIRNILGGTVFREPIVIPRIPRLVPRWEKPIIIGRHAHGDQYKATDTLIPGPGSLELVYKPSDPTTAQPQTLKVYDYKGSGVAMAMYNTDESIEGFAHSSFKLAIDKKLNLFLSTKNTILKKYDGRFKDIFQEVYEAQYKSKFEQLGIHYEHRLIDDMVAQMIKSKGGFIMALKNYDGDVQSDIVAQGFGSLGLMTSILVTPDGKTFESEAAHGTVTRHYRKYQKGEETSTNSIASIFAWSRGLLKRGELDNTPALCKFANILESATLNTVQQDGIMTKDLALACGNNERSAYVTTEEFLDAVEKRLQKEIKSIE", "notes": "6xHis-tagged, pET-28b(+), E. coli Rosetta (DE3); transit peptide absent (forward primer encodes M-FSKIKVK); 419 residues per subunit"}, "B2": {"name": "ScIDH1 (Saccharomyces cerevisiae S288C; R148A) (protein)", "chain": "B1 chain with R132A", "notes": "as for B1"}, "B3": {"name": "ScIDH1 (Saccharomyces cerevisiae S288C; R148H) (protein)", "chain": "B1 chain with R132H", "notes": "as for B1"}, "B4": {"name": "YlIDH (Yarrowia lipolytica CLIB122) (protein)", "chain": "MSTTATRGLSTKIKVKNPIVELDGDEMTRIIWKSIKDKLILPYLDIDLKYYDLGIEYRDQTNDQVTIDAAEAIKKYQVGVKCATITPDEARVKEFGLKKMWLSPNGTIRNILGGTVFREPIVIPAVPRLVPGWKEPIIIGRHAHGDQYKAQDAVIPGAGELTLNFKPANGGDEQVIKVYTYDAPGVAMAMYNTDESITGFAYSSFNLALQKKLPLYMSTKNTILKKYDGRFKDIFQEIYDKEYKDKFDAAGIWYEHRLIDDMVAQMIKSKGGFIMALKNYDGDVQSDIVAQGFGSLGLMTSVLVTPDGKTFESEAAHGTVTRHYRQHQQGKETSTNSIASIFAWTRGLIQRGILDETPEVTKFAEALEKATVDTVDKDGIMTKDLALAGGKTDRSSYVLTEEFIDAVANRLKKDLA", "notes": "6xHis-tagged, pET-28b(+), E. coli Rosetta (DE3); forward primer encodes MSTTATR; 422 residues per subunit"}, "B5": {"name": "YlIDH (Yarrowia lipolytica CLIB122; R141H) (protein)", "chain": "B4 chain with R141H", "notes": "as for B4"}}, "key": {"[1]": {"target": "T1, HcIDH (Homo sapiens, UniProt O75874, R132H)", "T1 construct": "gene IDH1; synthetic gene, 6xHis-tagged, pET-28b(+), E. coli Rosetta (DE3); 420 residues per subunit", "T1 sequence (O75874 whole entry R132H)": "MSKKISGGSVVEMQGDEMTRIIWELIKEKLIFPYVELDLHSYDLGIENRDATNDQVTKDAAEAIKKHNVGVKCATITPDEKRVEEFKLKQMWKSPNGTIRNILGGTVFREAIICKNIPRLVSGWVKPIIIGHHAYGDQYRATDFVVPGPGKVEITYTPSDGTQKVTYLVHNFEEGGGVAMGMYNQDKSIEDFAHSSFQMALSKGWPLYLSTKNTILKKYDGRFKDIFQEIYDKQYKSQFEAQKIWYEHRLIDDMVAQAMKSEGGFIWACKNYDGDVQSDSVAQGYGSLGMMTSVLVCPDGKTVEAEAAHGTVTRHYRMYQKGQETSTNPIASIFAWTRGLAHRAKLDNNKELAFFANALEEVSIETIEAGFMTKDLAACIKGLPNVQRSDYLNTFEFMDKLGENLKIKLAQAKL", "test": "NADPH formation at […] nm, linear regression", "format": "biochemical", "settings": "0.5 mM NADP+, 2 mM MgCl2, 50 mM Tris-HCl pH 8.0, 25°C; apparent; as D-isocitrate; read-out: Isocitrate ^a / K m"}, "[2]": {"target": "T2, HcIDH (Homo sapiens, UniProt O75874)", "T2 construct": "gene IDH1; synthetic gene, 6xHis-tagged, pET-28b(+), E. coli Rosetta (DE3); 420 residues per subunit", "T2 sequence (O75874 whole entry)": "as the sequence (O75874 whole entry R132H) above, with H132R counted along it", "test": "NADPH formation at […] nm, nonlinear regression", "format": "biochemical", "settings": "0.5 mM NADP+, 2 mM MgCl2, 50 mM Tris-HCl pH 8.0, 25°C; apparent; as D-isocitrate; read-out: Isocitrate ^a / K m"}, "[3]": {"target": "T1, HcIDH", "test": "NADPH consumption at […] nm", "format": "biochemical", "settings": "2 mM MgCl2, 50 mM Tris-HCl pH 8.0, neomorphic reduction to 2-HG, read-out: α-KG / K m"}, "[4]": {"substrate": "O=C(O)C[C@H](C(=O)O)[C@@H](O)C(=O)O", "test": "purified protein", "format": "biochemical, Saccharomyces cerevisiae", "settings": "0.5 mM NADP+, 2 mM MgCl2, 50 mM Tris-HCl pH 8.0, 25°C, apparent, as D-isocitrate"}, "[5]": {"substrate": "NC(=O)c1ccc[n+]([C@@H]2O[C@H](COP(=O)(O)OP(=O)(O)OC[C@H]3O[C@@H](n4cnc5c(N)ncnc54)[C@H](OP(=O)(O)O)[C@@H]3O)[C@@H](O)[C@H]2O)c1", "test": "purified protein", "format": "biochemical, Saccharomyces cerevisiae", "settings": "isocitrate, MgCl2, 50 mM Tris-HCl pH 8.0, 25°C, varied: cofactor"}, "[6]": {"substrate": "O=C(O)CCC(=O)C(=O)O", "test": "purified protein", "format": "biochemical, Saccharomyces cerevisiae", "settings": "NADPH, 2 mM MgCl2, 50 mM Tris-HCl pH 8.0, neomorphic reduction to 2-HG"}, "[7]": {"substrate": "NC(=O)C1=CN([C@@H]2O[C@H](COP(=O)(O)OP(=O)(O)OC[C@H]3O[C@@H](n4cnc5c(N)ncnc54)[C@H](OP(=O)(O)O)[C@@H]3O)[C@@H](O)[C@H]2O)C=CC1", "test": "purified protein", "format": "biochemical, Saccharomyces cerevisiae", "settings": "α-KG, 2 mM MgCl2, 50 mM Tris-HCl pH 8.0, neomorphic reduction, varied: cofactor"}, "[8]": {"substrate": "O=C(O)C[C@H](C(=O)O)[C@@H](O)C(=O)O", "test": "purified protein", "format": "biochemical, Yarrowia lipolytica", "settings": "0.5 mM NADP+, 2 mM MgCl2, 50 mM Tris-HCl pH 8.0, 25°C, apparent, as D-isocitrate"}, "[9]": {"substrate": "NC(=O)c1ccc[n+]([C@@H]2O[C@H](COP(=O)(O)OP(=O)(O)OC[C@H]3O[C@@H](n4cnc5c(N)ncnc54)[C@H](OP(=O)(O)O)[C@@H]3O)[C@@H](O)[C@H]2O)c1", "test": "purified protein", "format": "biochemical, Yarrowia lipolytica", "settings": "isocitrate, MgCl2, 50 mM Tris-HCl pH 8.0, 25°C, varied: cofactor"}, "[10]": {"substrate": "O=C(O)CCC(=O)C(=O)O", "test": "purified protein", "format": "biochemical, Yarrowia lipolytica", "settings": "NADPH, 2 mM MgCl2, 50 mM Tris-HCl pH 8.0, neomorphic reduction to 2-HG"}, "[11]": {"substrate": "NC(=O)C1=CN([C@@H]2O[C@H](COP(=O)(O)OP(=O)(O)OC[C@H]3O[C@@H](n4cnc5c(N)ncnc54)[C@H](OP(=O)(O)O)[C@@H]3O)[C@@H](O)[C@H]2O)C=CC1", "test": "purified protein", "format": "biochemical, Yarrowia lipolytica", "settings": "α-KG, 2 mM MgCl2, 50 mM Tris-HCl pH 8.0, neomorphic reduction, varied: cofactor"}}, "note": "Residue numbers refer to the chain shown, from its start. Numbers in names are those of the source.", "data": [{"molecule": "O=C(O)C[C@H](C(=O)O)[C@@H](O)C(=O)O", "note": "[isocitrate]", "values": [{"measurement": "Km", "setting": "[1]", "value": "2280 ± 195", "unit": "µM"}, {"measurement": "Km", "setting": "[2]", "value": "5.7 ± 1.4", "unit": "µM"}]}, {"molecule": "O=C(O)CCC(=O)C(=O)O", "note": "[α-KG]", "values": [{"measurement": "Km", "setting": "[3]", "value": "157 ± 38.4", "unit": "µM"}]}, {"molecule": "B1", "values": [{"measurement": "Km", "setting": "[4]", "value": "10.5 ± 1.2", "unit": "µM"}, {"measurement": "kcat", "setting": "[4]", "value": "26.3 ± 0.09", "unit": "s⁻¹"}, {"measurement": "kcat/Km", "setting": "[4]", "value": "2.5e+06", "unit": "M⁻¹ s⁻¹"}, {"measurement": "Km", "setting": "[5]", "value": "17.4 ± 2.01", "unit": "µM"}]}, {"molecule": "B2", "values": [{"measurement": "Km", "setting": "[4]", "value": "2263.1 ± 177.3", "unit": "µM"}, {"measurement": "kcat", "setting": "[4]", "value": "12.4 ± 5.31", "unit": "s⁻¹"}, {"measurement": "kcat/Km", "setting": "[4]", "value": 5000, "unit": "M⁻¹ s⁻¹"}]}, {"molecule": "B3", "values": [{"measurement": "Km", "setting": "[4]", "value": "24.8 ± 3.2", "unit": "µM"}, {"measurement": "kcat", "setting": "[4]", "value": "0.27 ± 0.015", "unit": "s⁻¹"}, {"measurement": "kcat/Km", "setting": "[4]", "value": 11000, "unit": "M⁻¹ s⁻¹"}, {"measurement": "Km", "setting": "[6]", "value": "30.0 ± 1.76", "unit": "µM"}, {"measurement": "kcat", "setting": "[6]", "value": "0.34 ± 0.009", "unit": "s⁻¹"}, {"measurement": "kcat/Km", "setting": "[6]", "value": 11000, "unit": "M⁻¹ s⁻¹"}, {"measurement": "Km", "setting": "[7]", "value": "5.9 ± 0.51", "unit": "µM"}]}, {"molecule": "B4", "values": [{"measurement": "Km", "setting": "[8]", "value": "11.7 ± 1.1", "unit": "µM"}, {"measurement": "kcat", "setting": "[8]", "value": "26.6 ± 0.87", "unit": "s⁻¹"}, {"measurement": "kcat/Km", "setting": "[8]", "value": "2.3e+06", "unit": "M⁻¹ s⁻¹"}, {"measurement": "Km", "setting": "[9]", "value": "4.1 ± 0.76", "unit": "µM"}]}, {"molecule": "B5", "values": [{"measurement": "Km", "setting": "[8]", "value": "25.6 ± 2.3", "unit": "µM"}, {"measurement": "kcat", "setting": "[8]", "value": "0.14 ± 0.006", "unit": "s⁻¹"}, {"measurement": "kcat/Km", "setting": "[8]", "value": 5000, "unit": "M⁻¹ s⁻¹"}, {"measurement": "Km", "setting": "[10]", "value": "47.3 ± 4.2", "unit": "µM"}, {"measurement": "kcat", "setting": "[10]", "value": "0.43 ± 0.017", "unit": "s⁻¹"}, {"measurement": "kcat/Km", "setting": "[10]", "value": 9000, "unit": "M⁻¹ s⁻¹"}, {"measurement": "Km", "setting": "[11]", "value": "3.2 ± 0.43", "unit": "µM"}]}]}
